# Results as given in patent US20200079833A1 (AstraZeneca / MedImmune, published 2020).
# Starred links: 1 amine or outer side, 2 acyl side, 3 side chain; linkers in the order of their positions; H or OH if unused. Non-standard residues stand in square brackets, D forms with d. Groups on a side chain read outwards from the residue. No end group written: not given here. *: point of attachment. γGlu = O=C(O)[C@H](CCC(=O)[*:2])N[*:1]; Palmitoyl = CCCCCCCCCCCCCCCC(=O)*; αMeF = C[C@](N)(Cc1ccccc1)C(=O)O; αMeK = C[C@](N)(CCCCN)C(=O)O; αMeS = C[C@](N)(CO)C(=O)O; Aib = CC(C)(N)C(=O)O
# T1: GLP-1R (INS1e assay) (UniProt P32301 22-463, limits assumed)
# T1 sequence (looked up): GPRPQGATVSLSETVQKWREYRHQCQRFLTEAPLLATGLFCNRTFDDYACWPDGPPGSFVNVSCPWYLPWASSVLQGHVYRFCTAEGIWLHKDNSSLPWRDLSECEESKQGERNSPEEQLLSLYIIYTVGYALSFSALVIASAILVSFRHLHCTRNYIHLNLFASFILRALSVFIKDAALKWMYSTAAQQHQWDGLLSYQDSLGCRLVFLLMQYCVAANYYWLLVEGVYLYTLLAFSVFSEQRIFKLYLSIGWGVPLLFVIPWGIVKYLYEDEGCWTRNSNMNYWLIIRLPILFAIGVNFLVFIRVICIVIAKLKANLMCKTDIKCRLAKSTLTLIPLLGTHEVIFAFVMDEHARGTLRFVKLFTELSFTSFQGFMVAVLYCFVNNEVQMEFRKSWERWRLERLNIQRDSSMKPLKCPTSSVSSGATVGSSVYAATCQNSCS
# Molecular target: T1, GLP-1R (INS1e assay)
# Assay: cell-based or functional assay
INS1e assay EC50 GLP-1 R n1,INS1e assay EC50 GLP-1 R n2,INS1e assay EC50 Mean pM GLP-1R,Binder
0.345 nM,0.346 nM,346 pM,H[Aib]EGS[αMeF]TSDV[αMeS]S[αMeF]LEGEAA[αMeK]EK([γGlu-Palmitoyl])IA[αMeF]VV[αMeK]GG-NH2 (N-terminus assumed; SMILES CCCCCCCCCCCCCCCC(=O)N[C@@H](CCC(=O)NCCCC[C@H](NC(=O)[C@H](CCC(=O)O)NC(=O)[C@](C)(CCCCN)NC(=O)[C@H](C)NC(=O)[C@H](C)NC(=O)[C@H](CCC(=O)O)NC(=O)CNC(=O)[C@H](CCC(=O)O)NC(=O)[C@H](CC(C)C)NC(=O)[C@](C)(Cc1ccccc1)NC(=O)[C@H](CO)NC(=O)[C@](C)(CO)NC(=O)[C@@H](NC(=O)[C@H](CC(=O)O)NC(=O)[C@H](CO)NC(=O)[C@@H](NC(=O)[C@](C)(Cc1ccccc1)NC(=O)[C@H](CO)NC(=O)CNC(=O)[C@H](CCC(=O)O)NC(=O)C(C)(C)NC(=O)[C@@H](N)Cc1c[nH]cn1)[C@@H](C)O)C(C)C)C(=O)N[C@H](C(=O)N[C@@H](C)C(=O)N[C@@](C)(Cc1ccccc1)C(=O)N[C@H](C(=O)N[C@H](C(=O)N[C@@](C)(CCCCN)C(=O)NCC(=O)NCC(N)=O)C(C)C)C(C)C)[C@@H](C)CC)C(=O)O) [SEQ ID NO 78]
0.289 nM,0.527 nM,408 pM,H[Aib]EGS[αMeF]TSDV[αMeS]S[αMeF]LEGEAA[αMeK]K([γGlu-Palmitoyl])[αMeF]IA[αMeF]VV[αMeK]GG-NH2 (N-terminus assumed; SMILES CCCCCCCCCCCCCCCC(=O)N[C@@H](CCC(=O)NCCCC[C@H](NC(=O)[C@](C)(CCCCN)NC(=O)[C@H](C)NC(=O)[C@H](C)NC(=O)[C@H](CCC(=O)O)NC(=O)CNC(=O)[C@H](CCC(=O)O)NC(=O)[C@H](CC(C)C)NC(=O)[C@](C)(Cc1ccccc1)NC(=O)[C@H](CO)NC(=O)[C@](C)(CO)NC(=O)[C@@H](NC(=O)[C@H](CC(=O)O)NC(=O)[C@H](CO)NC(=O)[C@@H](NC(=O)[C@](C)(Cc1ccccc1)NC(=O)[C@H](CO)NC(=O)CNC(=O)[C@H](CCC(=O)O)NC(=O)C(C)(C)NC(=O)[C@@H](N)Cc1c[nH]cn1)[C@@H](C)O)C(C)C)C(=O)N[C@@](C)(Cc1ccccc1)C(=O)N[C@H](C(=O)N[C@@H](C)C(=O)N[C@@](C)(Cc1ccccc1)C(=O)N[C@H](C(=O)N[C@H](C(=O)N[C@@](C)(CCCCN)C(=O)NCC(=O)NCC(N)=O)C(C)C)C(C)C)[C@@H](C)CC)C(=O)O) [SEQ ID NO 79]
0.151 nM,0.238 nM,195 pM,H[Aib]EGS[αMeF]TSDV[αMeS]S[αMeF]LEGEK([γGlu-Palmitoyl])A[αMeK]E[αMeF]IA[αMeF]VV[αMeK]GG-NH2 (N-terminus assumed; SMILES CCCCCCCCCCCCCCCC(=O)N[C@@H](CCC(=O)NCCCC[C@H](NC(=O)[C@H](CCC(=O)O)NC(=O)CNC(=O)[C@H](CCC(=O)O)NC(=O)[C@H](CC(C)C)NC(=O)[C@](C)(Cc1ccccc1)NC(=O)[C@H](CO)NC(=O)[C@](C)(CO)NC(=O)[C@@H](NC(=O)[C@H](CC(=O)O)NC(=O)[C@H](CO)NC(=O)[C@@H](NC(=O)[C@](C)(Cc1ccccc1)NC(=O)[C@H](CO)NC(=O)CNC(=O)[C@H](CCC(=O)O)NC(=O)C(C)(C)NC(=O)[C@@H](N)Cc1c[nH]cn1)[C@@H](C)O)C(C)C)C(=O)N[C@@H](C)C(=O)N[C@@](C)(CCCCN)C(=O)N[C@@H](CCC(=O)O)C(=O)N[C@@](C)(Cc1ccccc1)C(=O)N[C@H](C(=O)N[C@@H](C)C(=O)N[C@@](C)(Cc1ccccc1)C(=O)N[C@H](C(=O)N[C@H](C(=O)N[C@@](C)(CCCCN)C(=O)NCC(=O)NCC(N)=O)C(C)C)C(C)C)[C@@H](C)CC)C(=O)O) [SEQ ID NO 82]

# The next lines start with the binder.
Binder,INS1e assay EC50 GLP-1 R n1,INS1e assay EC50 GLP-1 R n2,INS1e assay EC50 Mean pM GLP-1R
H[Aib]EGS[αMeF]TSDV[αMeS]S[αMeF]LEK([γGlu-Palmitoyl])EAA[αMeK]E[αMeF]IA[αMeF]VV[αMeK]GG-NH2 (N-terminus assumed; SMILES CCCCCCCCCCCCCCCC(=O)N[C@@H](CCC(=O)NCCCC[C@H](NC(=O)[C@H](CCC(=O)O)NC(=O)[C@H](CC(C)C)NC(=O)[C@](C)(Cc1ccccc1)NC(=O)[C@H](CO)NC(=O)[C@](C)(CO)NC(=O)[C@@H](NC(=O)[C@H](CC(=O)O)NC(=O)[C@H](CO)NC(=O)[C@@H](NC(=O)[C@](C)(Cc1ccccc1)NC(=O)[C@H](CO)NC(=O)CNC(=O)[C@H](CCC(=O)O)NC(=O)C(C)(C)NC(=O)[C@@H](N)Cc1c[nH]cn1)[C@@H](C)O)C(C)C)C(=O)N[C@@H](CCC(=O)O)C(=O)N[C@@H](C)C(=O)N[C@@H](C)C(=O)N[C@@](C)(CCCCN)C(=O)N[C@@H](CCC(=O)O)C(=O)N[C@@](C)(Cc1ccccc1)C(=O)N[C@H](C(=O)N[C@@H](C)C(=O)N[C@@](C)(Cc1ccccc1)C(=O)N[C@H](C(=O)N[C@H](C(=O)N[C@@](C)(CCCCN)C(=O)NCC(=O)NCC(N)=O)C(C)C)C(C)C)[C@@H](C)CC)C(=O)O) [SEQ ID NO 84],0.455 nM,0.665 nM,560 pM
H[Aib]EGS[αMeF]TSDV[αMeS]S[αMeF]LEGEAAK([γGlu-Palmitoyl])E[αMeF]IA[αMeF]VV[αMeK]GG-NH2 (N-terminus assumed; SMILES CCCCCCCCCCCCCCCC(=O)N[C@@H](CCC(=O)NCCCC[C@H](NC(=O)[C@H](C)NC(=O)[C@H](C)NC(=O)[C@H](CCC(=O)O)NC(=O)CNC(=O)[C@H](CCC(=O)O)NC(=O)[C@H](CC(C)C)NC(=O)[C@](C)(Cc1ccccc1)NC(=O)[C@H](CO)NC(=O)[C@](C)(CO)NC(=O)[C@@H](NC(=O)[C@H](CC(=O)O)NC(=O)[C@H](CO)NC(=O)[C@@H](NC(=O)[C@](C)(Cc1ccccc1)NC(=O)[C@H](CO)NC(=O)CNC(=O)[C@H](CCC(=O)O)NC(=O)C(C)(C)NC(=O)[C@@H](N)Cc1c[nH]cn1)[C@@H](C)O)C(C)C)C(=O)N[C@@H](CCC(=O)O)C(=O)N[C@@](C)(Cc1ccccc1)C(=O)N[C@H](C(=O)N[C@@H](C)C(=O)N[C@@](C)(Cc1ccccc1)C(=O)N[C@H](C(=O)N[C@H](C(=O)N[C@@](C)(CCCCN)C(=O)NCC(=O)NCC(N)=O)C(C)C)C(C)C)[C@@H](C)CC)C(=O)O) [SEQ ID NO 80],3.89 nM,1.33 nM,2610 pM
H[Aib]EGS[αMeF]TSDV[αMeS]S[αMeF]K([γGlu-Palmitoyl])EGEAA[αMeK]E[αMeF]IA[αMeF]VV[αMeK]GG-NH2 (N-terminus assumed; SMILES CCCCCCCCCCCCCCCC(=O)N[C@@H](CCC(=O)NCCCC[C@H](NC(=O)[C@](C)(Cc1ccccc1)NC(=O)[C@H](CO)NC(=O)[C@](C)(CO)NC(=O)[C@@H](NC(=O)[C@H](CC(=O)O)NC(=O)[C@H](CO)NC(=O)[C@@H](NC(=O)[C@](C)(Cc1ccccc1)NC(=O)[C@H](CO)NC(=O)CNC(=O)[C@H](CCC(=O)O)NC(=O)C(C)(C)NC(=O)[C@@H](N)Cc1c[nH]cn1)[C@@H](C)O)C(C)C)C(=O)N[C@@H](CCC(=O)O)C(=O)NCC(=O)N[C@@H](CCC(=O)O)C(=O)N[C@@H](C)C(=O)N[C@@H](C)C(=O)N[C@@](C)(CCCCN)C(=O)N[C@@H](CCC(=O)O)C(=O)N[C@@](C)(Cc1ccccc1)C(=O)N[C@H](C(=O)N[C@@H](C)C(=O)N[C@@](C)(Cc1ccccc1)C(=O)N[C@H](C(=O)N[C@H](C(=O)N[C@@](C)(CCCCN)C(=O)NCC(=O)NCC(N)=O)C(C)C)C(C)C)[C@@H](C)CC)C(=O)O) [SEQ ID NO 86],0.0453 nM,0.0845 nM,65 pM
H[Aib]EGS[αMeF]TSDV[αMeS]S[αMeF]LEGK([γGlu-Palmitoyl])AA[αMeK]E[αMeF]IA[αMeF]VV[αMeK]GG-NH2 (N-terminus assumed; SMILES CCCCCCCCCCCCCCCC(=O)N[C@@H](CCC(=O)NCCCC[C@H](NC(=O)CNC(=O)[C@H](CCC(=O)O)NC(=O)[C@H](CC(C)C)NC(=O)[C@](C)(Cc1ccccc1)NC(=O)[C@H](CO)NC(=O)[C@](C)(CO)NC(=O)[C@@H](NC(=O)[C@H](CC(=O)O)NC(=O)[C@H](CO)NC(=O)[C@@H](NC(=O)[C@](C)(Cc1ccccc1)NC(=O)[C@H](CO)NC(=O)CNC(=O)[C@H](CCC(=O)O)NC(=O)C(C)(C)NC(=O)[C@@H](N)Cc1c[nH]cn1)[C@@H](C)O)C(C)C)C(=O)N[C@@H](C)C(=O)N[C@@H](C)C(=O)N[C@@](C)(CCCCN)C(=O)N[C@@H](CCC(=O)O)C(=O)N[C@@](C)(Cc1ccccc1)C(=O)N[C@H](C(=O)N[C@@H](C)C(=O)N[C@@](C)(Cc1ccccc1)C(=O)N[C@H](C(=O)N[C@H](C(=O)N[C@@](C)(CCCCN)C(=O)NCC(=O)NCC(N)=O)C(C)C)C(C)C)[C@@H](C)CC)C(=O)O) [SEQ ID NO 83],0.137 nM,0.25 nM,194 pM
